Test results taken from patent US20140113288, “METHODS OF IDENTIFYING RISK OF PREECLAMPSIA AND PREGNANCY-RELATED DISORDERS” (Academia Sinica, published 2014).
Where a chain is given by its changes, count along the chain named.

T1: GCM1 (GCMa) (Homo sapiens, UniProt Q9NP62 Q9NP62:1-436)
T1 sequence: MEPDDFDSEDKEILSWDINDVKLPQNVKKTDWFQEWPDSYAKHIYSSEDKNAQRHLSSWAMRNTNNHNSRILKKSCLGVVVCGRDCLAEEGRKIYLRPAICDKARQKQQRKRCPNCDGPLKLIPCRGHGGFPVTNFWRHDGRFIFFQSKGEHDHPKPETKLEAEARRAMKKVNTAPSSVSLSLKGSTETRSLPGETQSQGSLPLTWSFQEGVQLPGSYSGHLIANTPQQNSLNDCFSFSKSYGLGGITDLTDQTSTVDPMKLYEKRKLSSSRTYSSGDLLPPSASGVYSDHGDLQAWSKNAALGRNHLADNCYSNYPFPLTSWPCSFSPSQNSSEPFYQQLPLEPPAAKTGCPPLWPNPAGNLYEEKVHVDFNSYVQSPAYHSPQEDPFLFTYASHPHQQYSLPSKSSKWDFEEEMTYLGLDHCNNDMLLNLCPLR

B1: HtrA4-GBS probe (dsDNA)
DNA 1: GTGAGCTTTCTTATCAGTCTGCCCTCATTGTCGGTTTT
DNA 2: AAAACCGACAATGAGGGCAGACTGATAAGAAAGCTCAC
B2: HtrA4-GBSmt probe (dsDNA)
DNA 1: B1 DNA 1 with C22A, C23A, C26A, A27C
DNA 2: B1 DNA 2 with T12G, G13T, G16T, G17T

What was measured:
[1] = biological target: T1, GCM1 (GCMa); assay: EMSA; supershifted by anti-GCM1 antibody; 5% non-denaturing gel; details: tags: C-terminal FLAG (GCM1-FLAG); label: radiolabel
Description: (§1) BeWo cells stably expressing HA-GCM1 (BeWo31) (36) were treated with or without 50 μM forskolin for 24 hours before being subjected to ChIP assay using normal mouse serum or HA mAb (Sigma, St. Louis, Mo.). The immunopurified genomic fragments were amplified by ligation-mediated PCR and the resulting amplicons were fragmented and labeled with terminal labeling kit (Affymetrix, Santa Clara, Calif.) according to the manufacturer's instructions. The chips of Human promoter 1.0R array (Affymetrix) were hybridized with the labeled amplicons, followed by data analysis using the Partek software package (St. Louis, Mo.). Furthermore, RefSeq mapping data were collected from the UCSC Genome Browser's RefFlat table (The UCSC genome browser database: update 2007). The closest RefSeq 5′ end for each ChIP region was identified, regardless of whether the cluster was upstream or downstream of the 5′ end. The primer sequences for ChIP analysis of the interaction between GCM1 and HtrA4-GBS in BeWo cells are 5′-[…]-3′ (SEQ ID NO:4) and 5′-GTCTCTAGCC CTACCCG-3′ (SEQ ID NO:5). On the other hand, analysis of direct interaction between GCM1 and HtrA4-GBS was performed by electrophoretic mobility shift assay (EMSA) as previously described (22). […] The reaction mixtures were analyzed by electrophoresis on 5% non-denaturing polyacrylamide gels. […]

[2] = biological target: T1, GCM1 (GCMa); assay: EMSA; GBS mutated; details: tags: C-terminal FLAG (GCM1-FLAG); label: radiolabel
Description: as §1

| Binder | binding result [1] | binding result [2] |
| --- | --- | --- |
| B1 | binds |  |
| B2 |  | no binding |
